According to patent US20130115677:
Substitutions are numbered along the chain they refer to.

Experiments:
Test in all cases: cleavage_in_vitro
[1] = molecular target: T1, BamHI (Bacillus amyloliquefaciens) (UniProt P23940); conditions: NEB4, 37 C, Mg2+
T1 sequence: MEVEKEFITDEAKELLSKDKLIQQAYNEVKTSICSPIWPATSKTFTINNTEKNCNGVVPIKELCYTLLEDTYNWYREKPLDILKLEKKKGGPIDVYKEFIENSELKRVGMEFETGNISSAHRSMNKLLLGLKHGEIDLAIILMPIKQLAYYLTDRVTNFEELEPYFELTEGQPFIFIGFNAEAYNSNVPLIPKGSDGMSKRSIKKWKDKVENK

[2] = molecular target: EcoRI (Escherichia coli RY13) (UniProt P00642); conditions: NEB4, 37 C, Mg2+; 250 in NEB1 and NEB3
[3] = molecular target: EcoRI-HF K62E (Escherichia coli RY13) (UniProt P00642); conditions: NEB4, 37 C, Mg2+
[4] = molecular target: T2, HpaI (Haemophilus parainfluenzae) (UniProt P29537); conditions: NEB4, 37 C, Mg2+
T2 sequence: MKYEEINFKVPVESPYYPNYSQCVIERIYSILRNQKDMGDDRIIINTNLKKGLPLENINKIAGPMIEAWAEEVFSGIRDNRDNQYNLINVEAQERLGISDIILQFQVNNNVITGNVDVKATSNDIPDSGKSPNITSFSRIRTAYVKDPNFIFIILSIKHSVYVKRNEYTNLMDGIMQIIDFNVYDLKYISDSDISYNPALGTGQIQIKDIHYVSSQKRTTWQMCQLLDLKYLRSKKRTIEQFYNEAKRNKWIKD

[5] = tested on: T3, NcoI (Nocardia corallina); conditions: NEB4, 37 C, Mg2+
T3 sequence: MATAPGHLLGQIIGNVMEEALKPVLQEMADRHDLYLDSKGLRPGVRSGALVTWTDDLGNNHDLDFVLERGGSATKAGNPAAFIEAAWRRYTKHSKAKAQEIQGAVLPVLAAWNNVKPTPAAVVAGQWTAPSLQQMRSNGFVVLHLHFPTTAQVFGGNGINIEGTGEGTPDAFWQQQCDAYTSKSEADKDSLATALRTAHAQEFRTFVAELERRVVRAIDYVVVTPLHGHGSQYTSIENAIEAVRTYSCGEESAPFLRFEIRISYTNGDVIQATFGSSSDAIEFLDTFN

[6] = tested on: T4, NcoI-HF A2T/R31A (Nocardia corallina); conditions: NEB4, 37 C, Mg2+
T4 sequence: T3 sequence with A2T, R31A

[7] = tested on: T5, SapI (Saccharopolyspora sp.); conditions: NEB4, 37 C, Mg2+
T5 sequence: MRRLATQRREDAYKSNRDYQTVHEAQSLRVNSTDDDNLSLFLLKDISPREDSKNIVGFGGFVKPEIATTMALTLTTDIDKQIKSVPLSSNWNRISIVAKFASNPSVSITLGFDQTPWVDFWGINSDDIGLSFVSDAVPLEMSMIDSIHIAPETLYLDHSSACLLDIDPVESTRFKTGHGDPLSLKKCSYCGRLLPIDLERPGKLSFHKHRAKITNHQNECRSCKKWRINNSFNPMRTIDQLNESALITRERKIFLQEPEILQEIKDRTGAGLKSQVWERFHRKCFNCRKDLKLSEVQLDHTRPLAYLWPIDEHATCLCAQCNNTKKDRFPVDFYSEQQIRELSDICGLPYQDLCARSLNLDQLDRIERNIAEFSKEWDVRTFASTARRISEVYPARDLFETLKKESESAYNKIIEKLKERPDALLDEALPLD

[8] = tested on: T6, SbfI (Streptomyces species Bf-61?); conditions: NEB4, 37 C, Mg2+
T6 sequence: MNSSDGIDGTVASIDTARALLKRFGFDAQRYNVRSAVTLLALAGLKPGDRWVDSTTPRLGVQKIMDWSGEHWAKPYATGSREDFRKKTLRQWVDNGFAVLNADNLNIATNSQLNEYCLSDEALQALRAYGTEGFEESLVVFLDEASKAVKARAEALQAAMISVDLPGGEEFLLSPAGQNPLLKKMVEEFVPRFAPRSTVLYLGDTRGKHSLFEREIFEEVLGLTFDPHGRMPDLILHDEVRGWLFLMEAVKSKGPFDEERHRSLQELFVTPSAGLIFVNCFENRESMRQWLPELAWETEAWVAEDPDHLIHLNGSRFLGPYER

[9] = tested on: T7, SbfI-HF K251A (Streptomyces species Bf-61?); conditions: NEB4, 37 C, Mg2+
T7 sequence: T6 sequence with K251A

[10] = molecular target: T8, ScaI-HF H193A/S201F (Streptomyces caespitosus) (UniProt O52691); conditions: NEB4, 37 C, Mg2+
T8 sequence: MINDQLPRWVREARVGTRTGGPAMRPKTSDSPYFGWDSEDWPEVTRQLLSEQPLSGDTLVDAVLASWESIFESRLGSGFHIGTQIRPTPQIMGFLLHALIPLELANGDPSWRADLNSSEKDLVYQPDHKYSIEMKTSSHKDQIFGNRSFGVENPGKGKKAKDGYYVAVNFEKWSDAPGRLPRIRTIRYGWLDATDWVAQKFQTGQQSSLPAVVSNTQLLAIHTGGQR

[11] = tested on: T9, SphI-HF K100A (Streptomyces phaeochromogenes); conditions: NEB4, 37 C, Mg2+
T9 sequence: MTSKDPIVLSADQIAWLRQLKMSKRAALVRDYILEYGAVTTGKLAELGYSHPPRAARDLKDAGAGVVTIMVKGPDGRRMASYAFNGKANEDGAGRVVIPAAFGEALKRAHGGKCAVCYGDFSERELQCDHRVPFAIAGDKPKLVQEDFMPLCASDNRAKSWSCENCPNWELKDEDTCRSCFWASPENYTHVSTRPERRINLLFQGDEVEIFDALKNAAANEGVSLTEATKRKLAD

With lambda DNA the activity (fidelity index) [1] was 4, the activity (fidelity index) [2] was 4 and the activity (fidelity index) [3] was 16000. For the same substance, the activity (fidelity index) [4] was 16, the activity (fidelity index) [5] was 32 and the activity (fidelity index) [6] was > 64000. It also gave an activity (fidelity index) [7] of 16, an activity (fidelity index) [8] of 8 and an activity (fidelity index) [9] of 250. For the same substance, the activity (fidelity index) [10] was 1000 and the activity (fidelity index) [11] was 8000.
